We go through six proteins from paper PMC9242541, “Importance of Rare DPYD Genetic Polymorphisms for 5-Fluorouracil Therapy in the Japanese Population” (Frontiers in Pharmacology, 2022).

This data set deals with the molecule itself. Nature of the data set: native gel or EMSA; blue native PAGE (Tris-glycine buffer, 5%-20% polyacrylamide gels), 9 μg of the soluble fraction of transfected 293FT cells per lane, immunoblot with polyclonal anti-human DPD antibody; monomer to dimer. In general terms: A gel shift assay detects complexes by their altered migration in electrophoresis.

B1: wild-type dihydropyrimidine dehydrogenase (DPD) (enzyme, human, UniProt Q12882 4-1025, looked up)
chain: VLSKDSADIESILALNPRTQTHATLCSTSAKKLDKKHWKRNPDKNCFNCEKLENNFDDIKHTTLGERGALREAMRCLKCADAPCQKSCPTNLDIKSFITSIANKNYYGAAKMIFSDNPLGLTCGMVCPTSDLCVGGCNLYATEEGPINIGGLQQFATEVFKAMSIPQIRNPSLPPPEKMSEAYSAKIALFGAGPASISCASFLARLGYSDITIFEKQEYVGGLSTSEIPQFRLPYDVVNFEIELMKDLGVKIICGKSLSVNEMTLSTLKEKGYKAAFIGIGLPEPNKDAIFQGLTQDQGFYTSKDFLPLVAKGSKAGMCACHSPLPSIRGVVIVLGAGDTAFDCATSALRCGARRVFIVFRKGFVNIRAVPEEMELAKEEKCEFLPFLSPRKVIVKGGRIVAMQFVRTEQDETGKWNEDEDQMVHLKADVVISAFGSVLSDPKVKEALSPIKFNRWGLPEVDPETMQTSEAWVFAGGDVVGLANTTVESVNDGKQASWYIHKYVQSQYGASVSAKPELPLFYTPIDLVDISVEMAGLKFINPFGLASATPATSTSMIRRAFEAGWGFALTKTFSLDKDIVTNVSPRIIRGTTSGPMYGPGQSSFLNIELISEKTAAYWCQSVTELKADFPDNIVIASIMCSYNKNDWTELAKKSEDSGADALELNLSCPHGMGERGMGLACGQDPELVRNICRWVRQAVQIPFFAKLTPNVTDIVSIARAAKEGGANGVTATNTVSGLMGLKSDGTPWPAVGIAKRTTYGGVSGTAIRPIALRAVTSIARALPGFPILATGGIDSAESGLQFLHSGASVLQVCSAIQNQDFTVIEDYCTGLKALLYLKSIEELQDWDGQSPATVSHQKGKPVPRIAELMDKKLPSFGPYLEQRKKIIAENKIRLKEQNVAFSPLKRNCFIPKRPIPTIKDVIGKALQYLGTFGELSNVEQVVAMIDEEMCINCGKCYMTCNDSGYQAIQFDPETHLPTITDTCTGCTLCLSVCPIVDCIKMVSRTTPYEPKRGVPLSVNPVC
notes: dihydropyrimidine dehydrogenase (DPD), human, wild-type DPYD cDNA; the open-reading frame encodes 1,025 amino acid residues; no tag is stated; also called wild-type DPD; source: 293FT cells, transfected (pcDNA3.4), soluble fraction
As a reminder, the stoichiometry N is a count of units in the complex or per binding partner. Turning to B1, the “stoichiometry N” value turned out to be 2.

B2: DPD variant T298M (enzyme, human, UniProt Q12882 4-1025, looked up)
chain: VLSKDSADIESILALNPRTQTHATLCSTSAKKLDKKHWKRNPDKNCFNCEKLENNFDDIKHTTLGERGALREAMRCLKCADAPCQKSCPTNLDIKSFITSIANKNYYGAAKMIFSDNPLGLTCGMVCPTSDLCVGGCNLYATEEGPINIGGLQQFATEVFKAMSIPQIRNPSLPPPEKMSEAYSAKIALFGAGPASISCASFLARLGYSDITIFEKQEYVGGLSTSEIPQFRLPYDVVNFEIELMKDLGVKIICGKSLSVNEMTLSTLKEKGYKAAFIGIGLPEPNKDAIFQGLMQDQGFYTSKDFLPLVAKGSKAGMCACHSPLPSIRGVVIVLGAGDTAFDCATSALRCGARRVFIVFRKGFVNIRAVPEEMELAKEEKCEFLPFLSPRKVIVKGGRIVAMQFVRTEQDETGKWNEDEDQMVHLKADVVISAFGSVLSDPKVKEALSPIKFNRWGLPEVDPETMQTSEAWVFAGGDVVGLANTTVESVNDGKQASWYIHKYVQSQYGASVSAKPELPLFYTPIDLVDISVEMAGLKFINPFGLASATPATSTSMIRRAFEAGWGFALTKTFSLDKDIVTNVSPRIIRGTTSGPMYGPGQSSFLNIELISEKTAAYWCQSVTELKADFPDNIVIASIMCSYNKNDWTELAKKSEDSGADALELNLSCPHGMGERGMGLACGQDPELVRNICRWVRQAVQIPFFAKLTPNVTDIVSIARAAKEGGANGVTATNTVSGLMGLKSDGTPWPAVGIAKRTTYGGVSGTAIRPIALRAVTSIARALPGFPILATGGIDSAESGLQFLHSGASVLQVCSAIQNQDFTVIEDYCTGLKALLYLKSIEELQDWDGQSPATVSHQKGKPVPRIAELMDKKLPSFGPYLEQRKKIIAENKIRLKEQNVAFSPLKRNCFIPKRPIPTIKDVIGKALQYLGTFGELSNVEQVVAMIDEEMCINCGKCYMTCNDSGYQAIQFDPETHLPTITDTCTGCTLCLSVCPIVDCIKMVSRTTPYEPKRGVPLSVNPVC
notes: dihydropyrimidine dehydrogenase (DPD), human, DPYD cDNA with a variant found in Japanese individuals; made by site-directed mutagenesis of the wild-type construct; also called 893C > T; source: 293FT cells, transfected (pcDNA3.4), soluble fraction
As for B2, the “stoichiometry N” value is 2.

B3: DPD variant D291N (enzyme, human, UniProt Q12882 4-1025, looked up)
chain: VLSKDSADIESILALNPRTQTHATLCSTSAKKLDKKHWKRNPDKNCFNCEKLENNFDDIKHTTLGERGALREAMRCLKCADAPCQKSCPTNLDIKSFITSIANKNYYGAAKMIFSDNPLGLTCGMVCPTSDLCVGGCNLYATEEGPINIGGLQQFATEVFKAMSIPQIRNPSLPPPEKMSEAYSAKIALFGAGPASISCASFLARLGYSDITIFEKQEYVGGLSTSEIPQFRLPYDVVNFEIELMKDLGVKIICGKSLSVNEMTLSTLKEKGYKAAFIGIGLPEPNKNAIFQGLTQDQGFYTSKDFLPLVAKGSKAGMCACHSPLPSIRGVVIVLGAGDTAFDCATSALRCGARRVFIVFRKGFVNIRAVPEEMELAKEEKCEFLPFLSPRKVIVKGGRIVAMQFVRTEQDETGKWNEDEDQMVHLKADVVISAFGSVLSDPKVKEALSPIKFNRWGLPEVDPETMQTSEAWVFAGGDVVGLANTTVESVNDGKQASWYIHKYVQSQYGASVSAKPELPLFYTPIDLVDISVEMAGLKFINPFGLASATPATSTSMIRRAFEAGWGFALTKTFSLDKDIVTNVSPRIIRGTTSGPMYGPGQSSFLNIELISEKTAAYWCQSVTELKADFPDNIVIASIMCSYNKNDWTELAKKSEDSGADALELNLSCPHGMGERGMGLACGQDPELVRNICRWVRQAVQIPFFAKLTPNVTDIVSIARAAKEGGANGVTATNTVSGLMGLKSDGTPWPAVGIAKRTTYGGVSGTAIRPIALRAVTSIARALPGFPILATGGIDSAESGLQFLHSGASVLQVCSAIQNQDFTVIEDYCTGLKALLYLKSIEELQDWDGQSPATVSHQKGKPVPRIAELMDKKLPSFGPYLEQRKKIIAENKIRLKEQNVAFSPLKRNCFIPKRPIPTIKDVIGKALQYLGTFGELSNVEQVVAMIDEEMCINCGKCYMTCNDSGYQAIQFDPETHLPTITDTCTGCTLCLSVCPIVDCIKMVSRTTPYEPKRGVPLSVNPVC
notes: dihydropyrimidine dehydrogenase (DPD), human, DPYD cDNA with a variant found in Japanese individuals; made by site-directed mutagenesis of the wild-type construct; also called 871G > A; source: 293FT cells, transfected (pcDNA3.4), soluble fraction
With B3, the “stoichiometry N” value was determined as 2.

B4: DPD variant I245F (enzyme, human, UniProt Q12882 4-1025, looked up)
chain: VLSKDSADIESILALNPRTQTHATLCSTSAKKLDKKHWKRNPDKNCFNCEKLENNFDDIKHTTLGERGALREAMRCLKCADAPCQKSCPTNLDIKSFITSIANKNYYGAAKMIFSDNPLGLTCGMVCPTSDLCVGGCNLYATEEGPINIGGLQQFATEVFKAMSIPQIRNPSLPPPEKMSEAYSAKIALFGAGPASISCASFLARLGYSDITIFEKQEYVGGLSTSEIPQFRLPYDVVNFEFELMKDLGVKIICGKSLSVNEMTLSTLKEKGYKAAFIGIGLPEPNKDAIFQGLTQDQGFYTSKDFLPLVAKGSKAGMCACHSPLPSIRGVVIVLGAGDTAFDCATSALRCGARRVFIVFRKGFVNIRAVPEEMELAKEEKCEFLPFLSPRKVIVKGGRIVAMQFVRTEQDETGKWNEDEDQMVHLKADVVISAFGSVLSDPKVKEALSPIKFNRWGLPEVDPETMQTSEAWVFAGGDVVGLANTTVESVNDGKQASWYIHKYVQSQYGASVSAKPELPLFYTPIDLVDISVEMAGLKFINPFGLASATPATSTSMIRRAFEAGWGFALTKTFSLDKDIVTNVSPRIIRGTTSGPMYGPGQSSFLNIELISEKTAAYWCQSVTELKADFPDNIVIASIMCSYNKNDWTELAKKSEDSGADALELNLSCPHGMGERGMGLACGQDPELVRNICRWVRQAVQIPFFAKLTPNVTDIVSIARAAKEGGANGVTATNTVSGLMGLKSDGTPWPAVGIAKRTTYGGVSGTAIRPIALRAVTSIARALPGFPILATGGIDSAESGLQFLHSGASVLQVCSAIQNQDFTVIEDYCTGLKALLYLKSIEELQDWDGQSPATVSHQKGKPVPRIAELMDKKLPSFGPYLEQRKKIIAENKIRLKEQNVAFSPLKRNCFIPKRPIPTIKDVIGKALQYLGTFGELSNVEQVVAMIDEEMCINCGKCYMTCNDSGYQAIQFDPETHLPTITDTCTGCTLCLSVCPIVDCIKMVSRTTPYEPKRGVPLSVNPVC
notes: dihydropyrimidine dehydrogenase (DPD), human, DPYD cDNA with a variant found in Japanese individuals; made by site-directed mutagenesis of the wild-type construct; also called 733A > T; source: 293FT cells, transfected (pcDNA3.4), soluble fraction
On to B4, for which the “stoichiometry N” value was 2.

B5: DPD variant V313L (enzyme, human, UniProt Q12882 4-1025, looked up)
chain: VLSKDSADIESILALNPRTQTHATLCSTSAKKLDKKHWKRNPDKNCFNCEKLENNFDDIKHTTLGERGALREAMRCLKCADAPCQKSCPTNLDIKSFITSIANKNYYGAAKMIFSDNPLGLTCGMVCPTSDLCVGGCNLYATEEGPINIGGLQQFATEVFKAMSIPQIRNPSLPPPEKMSEAYSAKIALFGAGPASISCASFLARLGYSDITIFEKQEYVGGLSTSEIPQFRLPYDVVNFEIELMKDLGVKIICGKSLSVNEMTLSTLKEKGYKAAFIGIGLPEPNKDAIFQGLTQDQGFYTSKDFLPLLAKGSKAGMCACHSPLPSIRGVVIVLGAGDTAFDCATSALRCGARRVFIVFRKGFVNIRAVPEEMELAKEEKCEFLPFLSPRKVIVKGGRIVAMQFVRTEQDETGKWNEDEDQMVHLKADVVISAFGSVLSDPKVKEALSPIKFNRWGLPEVDPETMQTSEAWVFAGGDVVGLANTTVESVNDGKQASWYIHKYVQSQYGASVSAKPELPLFYTPIDLVDISVEMAGLKFINPFGLASATPATSTSMIRRAFEAGWGFALTKTFSLDKDIVTNVSPRIIRGTTSGPMYGPGQSSFLNIELISEKTAAYWCQSVTELKADFPDNIVIASIMCSYNKNDWTELAKKSEDSGADALELNLSCPHGMGERGMGLACGQDPELVRNICRWVRQAVQIPFFAKLTPNVTDIVSIARAAKEGGANGVTATNTVSGLMGLKSDGTPWPAVGIAKRTTYGGVSGTAIRPIALRAVTSIARALPGFPILATGGIDSAESGLQFLHSGASVLQVCSAIQNQDFTVIEDYCTGLKALLYLKSIEELQDWDGQSPATVSHQKGKPVPRIAELMDKKLPSFGPYLEQRKKIIAENKIRLKEQNVAFSPLKRNCFIPKRPIPTIKDVIGKALQYLGTFGELSNVEQVVAMIDEEMCINCGKCYMTCNDSGYQAIQFDPETHLPTITDTCTGCTLCLSVCPIVDCIKMVSRTTPYEPKRGVPLSVNPVC
notes: dihydropyrimidine dehydrogenase (DPD), human, DPYD cDNA with a variant found in Japanese individuals; made by site-directed mutagenesis of the wild-type construct; also called 937G > T; source: 293FT cells, transfected (pcDNA3.4), soluble fraction
Consider B5, for which the “stoichiometry N” value is 2.

B6: DPD variant Y304H (enzyme, human, UniProt Q12882 4-1025, looked up)
chain: VLSKDSADIESILALNPRTQTHATLCSTSAKKLDKKHWKRNPDKNCFNCEKLENNFDDIKHTTLGERGALREAMRCLKCADAPCQKSCPTNLDIKSFITSIANKNYYGAAKMIFSDNPLGLTCGMVCPTSDLCVGGCNLYATEEGPINIGGLQQFATEVFKAMSIPQIRNPSLPPPEKMSEAYSAKIALFGAGPASISCASFLARLGYSDITIFEKQEYVGGLSTSEIPQFRLPYDVVNFEIELMKDLGVKIICGKSLSVNEMTLSTLKEKGYKAAFIGIGLPEPNKDAIFQGLTQDQGFHTSKDFLPLVAKGSKAGMCACHSPLPSIRGVVIVLGAGDTAFDCATSALRCGARRVFIVFRKGFVNIRAVPEEMELAKEEKCEFLPFLSPRKVIVKGGRIVAMQFVRTEQDETGKWNEDEDQMVHLKADVVISAFGSVLSDPKVKEALSPIKFNRWGLPEVDPETMQTSEAWVFAGGDVVGLANTTVESVNDGKQASWYIHKYVQSQYGASVSAKPELPLFYTPIDLVDISVEMAGLKFINPFGLASATPATSTSMIRRAFEAGWGFALTKTFSLDKDIVTNVSPRIIRGTTSGPMYGPGQSSFLNIELISEKTAAYWCQSVTELKADFPDNIVIASIMCSYNKNDWTELAKKSEDSGADALELNLSCPHGMGERGMGLACGQDPELVRNICRWVRQAVQIPFFAKLTPNVTDIVSIARAAKEGGANGVTATNTVSGLMGLKSDGTPWPAVGIAKRTTYGGVSGTAIRPIALRAVTSIARALPGFPILATGGIDSAESGLQFLHSGASVLQVCSAIQNQDFTVIEDYCTGLKALLYLKSIEELQDWDGQSPATVSHQKGKPVPRIAELMDKKLPSFGPYLEQRKKIIAENKIRLKEQNVAFSPLKRNCFIPKRPIPTIKDVIGKALQYLGTFGELSNVEQVVAMIDEEMCINCGKCYMTCNDSGYQAIQFDPETHLPTITDTCTGCTLCLSVCPIVDCIKMVSRTTPYEPKRGVPLSVNPVC
notes: dihydropyrimidine dehydrogenase (DPD), human, DPYD cDNA with a variant found in Japanese individuals; made by site-directed mutagenesis of the wild-type construct; also called 910T > C; source: 293FT cells, transfected (pcDNA3.4), soluble fraction
With B6, the “stoichiometry N” value turned out to be 2.
